Results reported in article doi:10.1101/2025.03.21.644603, “Oligomerization enables the selective targeting of intrinsically disordered regions by small molecules” (bioRxiv, 2025).

B1: activation domain of the progesterone receptor (PR) (domain or fragment, UniProt P06401 1-566, looked up)
chain: MTELKAKGPRAPHVAGGPPSPEVGSPLLCRPAAGPFPGSQTSDTLPEVSAIPISLDGLLFPRPCQGQDPSDEKTQDQQSLSDVEGAYSRAEATRGAGGSSSSPPEKDSGLLDSVLDTLLAPSGPGQSQPSPPACEVTSSWCLFGPELPEDPPAAPATQRVLSPLMSRSGCKVGDSSGTAAAHKVLPRGLSPARQLLLPASESPHWSGAPVKPSPQAAAVEVEEEDGSESEESAGPLLKGKPRALGGAAAGGGAAAVPPGAAAGGVALVPKEDSRFSAPRVALVEQDAPMAPGRSPLATTVMDFIHVPILPLNHALLAARTRQLLEDESYDGGAGAASAFAPPRSSPCASSTPVAVGDFPDCAYPPDAEPKDDAYPLYSDFQPPALKIKEEEEGAEASARSPRSYLVAGANPAAFPDFPLGPPPPLPPRATPSRPGEAAVTAAPASASVSSASSSGSTLECILYKAEGAPPQQGPFAPPPCKAPGASGCLLPRDGLPSTSASAAAAGAAPALYPALGLNGLPQLGYQAAVLKEGLPQVYPPYLNYLRPDSEASQSPQYSFESLPQKI
notes: also called PR AD; PR (1-566 aa); source: E. coli Rosetta (DE3), pDEST17, purified (inclusion bodies in urea, HisTrap, tag cleavage, SEC); not shown: His-tag, N-terminal, cleaved
B2: activation domain of the glucocorticoid receptor (GR) (domain or fragment, UniProt P04150 1-420, looked up)
chain: MDSKESLTPGREENPSSVLAQERGDVMDFYKTLRGGATVKVSASSPSLAVASQSDSKQRRLLVDFPKGSVSNAQQPDLSKAVSLSMGLYMGETETKVMGNDLGFPQQGQISLSSGETDLKLLEESIANLNRSTSVPENPKSSASTAVSAAPTEKEFPKTHSDVSSEQQHLKGQTGTNGGNVKLYTTDQSTFDILQDLEFSSGSPGKETNESPWRSDLLIDENCLLSPLAGEDDSFLLEGNSNEDCKPLILPDTKPKIKDNGDLVLSSPSNVTLPQVKTEKEDFIELCTPGVIKQEKLGTVYCQASFPGANIIGNKMSAISVHGVSTSGGQMYHYDMNTASLSQQQDQKPIFNVIPPIPVGSENWNRCQGSGDDNLTSLGTLNFPGRTVFSNGYSSPSMRPDVSSPPSSSSTATTGPPPKL
notes: also called GR AD; GR (1-420 aa); source: E. coli Rosetta (DE3), pDEST17, purified (inclusion bodies in urea, HisTrap, tag cleavage, SEC); not shown: His-tag, N-terminal, cleaved
B3: activation domain of the mineralocorticoid receptor (MR) (domain or fragment, UniProt P08235 1-602, looked up)
chain: METKGYHSLPEGLDMERRWGQVSQAVERSSLGPTERTDENNYMEIVNVSCVSGAIPNNSTQGSSKEKQELLPCLQQDNNRPGILTSDIKTELESKELSATVAESMGLYMDSVRDADYSYEQQNQQGSMSPAKIYQNVEQLVKFYKGNGHRPSTLSCVNTPLRSFMSDSGSSVNGGVMRAVVKSPIMCHEKSPSVCSPLNMTSSVCSPAGINSVSSTTASFGSFPVHSPITQGTPLTCSPNVENRGSRSHSPAHASNVGSPLSSPLSSMKSSISSPPSHCSVKSPVSSPNNVTLRSSVSSPANINNSRCSVSSPSNTNNRSTLSSPAASTVGSICSPVNNAFSYTASGTSAGSSTLRDVVPSPDTQEKGAQEVPFPKTEEVESAISNGVTGQLNIVQYIKPEPDGAFSSSCLGGNSKINSDSSFSVPIKQESTKHSCSGTSFKGNPTVNPFPFMDGSYFSFMDDKDYYSLSGILGPPVPGFDGNCEGSGFPVGIKQEPDDGSYYPEASIPSSAIVGVNSGGQSFHYRIGAQGTISLSRSARDQSFQHLSSFPPVNTLVESWKSHGDLSSRRSDGYPVLEYIPENVSSSTLRSVSTGSSRPSKI
notes: also called MR AD; MR (1-602 aa); source: E. coli Rosetta (DE3), pDEST17, purified (inclusion bodies in urea, HisTrap, tag cleavage, SEC); not shown: His-tag, N-terminal, cleaved
B4: activation domain of the estrogen receptor alpha (ERɑ) (domain or fragment, UniProt P03372 1-184, looked up)
chain: MTMTLHTKASGMALLHQIQGNELEPLNRPQLKIPLERPLGEVYLDSSKPAVYNYPEGAAYEFNAAAAANAQVYGQTGLPYGPGSEAAAFGSNGLGGFPPLNSVSPSPLMLLHPPPQLSPFLQPHGQQVPYYLENEPSGYTVREAGPPAFYRPNSDNRRQGGRERLASTNDKGSMAMESAKETRY
notes: also called ERɑ AD; ERɑ (1-184 aa); source: E. coli Rosetta (DE3), pDEST17, purified (inclusion bodies in urea, HisTrap, tag cleavage, SEC); not shown: His-tag, N-terminal, cleaved

Target: the molecule itself
Assay: dynamic light scattering; one purified protein in solution; NR ADs at 2 mg/mL (AR AD also 35 µM), Tau-5* at 200 to 500 µM; 5 °C; 20 mM sodium phosphate pH 7.4, 1 mM TCEP, 0.5% DMSO-d6; percent of monomer against higher-order species; also with increasing EPI-001

Protein	binding result
B1	binds
B2	binds
B3	binds
B4	binds
